Test results published in paper doi:10.1101/188136 (bioRxiv, 2017).

Molecular target: the molecule itself
Assay: crystal structure

B1: BrlR (transcriptional regulator BrlR from Pseudomonas aeruginosa) (natural protein, UniProt Q9HUT5 1-270, looked up)
chain: MLTIGQLARIFEISTKTLRHYDAIGLFVPARTGSDNGYRYYQPEQIEQLSRILALRRLDVPLEAIDRLKRDGALDDPQRLRHFLQRHQHTLREEISARQRLLAELDRTLATLAHWRIRNMHARIVERPAFSVVGMEYFGSAPGDTIGQLWERFIPREHEIAGKHDPEVSYGICAQQPNGEFHYVAGFEVQEGWPVPEGMVRFQVPAQKYAVFTHKGTAPQIAESFQAIYSHLLAERGLEPKAGVDFEYYDQRFRGPLDPNSQVDLYIPIY
  stoichiometry N: 4
